From patent publication US8192734B2, “Compositions and methods for bone strengthening” (Cornell University, priority 2007, dated 2012)

How the values were obtained:
Assay type in all cases: in vivo, pig
[1] = system: weanling pigs fed high P diet; assay: Examples 4-8: radiographic bone density and metacarpal histomorphometry; conditions: 8 wk
Description: As in Examples 1-3, the animal protocol was approved by Cornell Animal Care and Use Committee. An 8-week feeding trial was conducted at Cornell University Swine Research Farm. Thirty weanling pigs (Yorkshire×Hampshire×Landrace, body weight=8.6±0.5 kg) were allocated into three groups (n=10). […] were fed a corn-soy basal diet (BD)+0.25% inorganic phosphorus (iP, dicalcium phosphate). Group 2 were fed BD+0.35% iP. Group 3 were fed BD+0.35% iP+3,400 units of phytase/kg (Escherichia coli appA2, OptiPhos, JBS United, Inc., Sheridan, Ind.). The BD (Table 7) contained adequate levels of all nutrients except for P^(63), and 0.25% iP is the supplementation level recommended by NRC^(24) to meet the P needs of this age of pigs. […] Pigs were housed in an environmentally-controlled barn (20-25° C.; 12-light: 12-dark cycle), and given free access to feed and water.
After the skin and major muscles were removed, two left legs were subjected to X-ray radiography using a Faxitron machine (Model 43855A; Hewlett Packard, McMinnville, Oreg., USA). Bone radiographs of femur and metacarpals were quantified by the kodac software. The software counted the total number of pixels. Thereafter, the 3rd and 4th metacarpals and femurs were collected to measure length, weight, height, and width after removing the remaining muscle and connective tissue. After the X-ray analysis, the two left legs were used for bone mechanical and mineral testing. Bone mechanical properties were determined by a three-point bending test (ASAE Standard S459 1992) using an Instron 4500 Machine Universal Testing Instrument (Model 1122, Instron, Canton, Mass.) with Instron Series IX Automated Materials Testing System Software (version 4.05). During testing, force was applied to the center of the bone held by supports 2.0 cm apart for metacarpals and 3.3 cm apart for femurs. The crosshead speed was set at 50 mm/min and the sampling rate was at 10 points/sec. The extrinsic parameters (stiffness/slope, maximum load, energy to break, maximum displacement) were derived from the force-displacement curve. Bone breaking strength was calculated with the adjustment of bone weight, and the average strength of the 3rd and 4th metacarpal was used as the metacarpal strength for each pig.
Metacarpals (4th) from right foot of pigs (n=5 for each group) were quickly fixed by 10% formalin for histology, decalcified, embedded in paraffin sagittally serially sectioned through the midline (8 μm), and stained with Masson's trichrome as previously described^(74). Variation of bone matrix mineralization was detected by modified tetrachrome method^(75). Sulfated proteoglycans were detected by alcian blue staining^(76) and counter staining with Mayer's acid haematoxylin. PCI software—CIMAGING System (Model 1280, Compix Inc., Cranberry, Pa.)—was applied to measure bone surface, osteoid, bone volume, trabecular thickness, number, and separation, and proteoglycans surface. Trabecular size and separation distances were measured by the software measurement scale. Trabecular numbers were counted within a specified field. For proteoglycans measurement, the total area of trabecular bone was first captured to define the region of interest (ROI). Then, within the ROI the blue color area of proteoglycans was captured and its area measured to define the object area. For osteoid measurement, the first cortical bone surface was the object. The area fraction of the deep green in the periosteal area was expressed as: Area fraction (%)=Object area/Region of interest (ROI)×100.

[2] = system: weanling pigs fed high P diet; assay: Examples 4-8: cortical and cancellous bone ash and mineral profile; conditions: 8 wk, 0.35% iP + Sr 50 mg/kg + phytase 3,400 U/kg
[3] = system: pigs fed P-adequate corn-soybean meal basal diet; assay: Expt 2: femur geometrical and strength properties
Description: A three-point bending test was conducted on the dissected bones to generate load-deformation curves with an Instron Model 5566 (Norwood, Mass.). Mechanical properties of bones were calculated using formula as previously described^(29). Bone cross sections were cut at the mid-point of loading and used to determine area moment of inertia. Cross sections were submersed for 5 min in a 0.4 mol/L sodium hypochlorite solution to remove periosteum and marrow tissue, and then embedded in blue clay (Play-Doh, Hasbro, Pawtucket, R.I.) to prevent depth-of-field distortions and to enhance contrasts. The embedded sections were scanned with a flat-bed scanner (Epson Perfection Model 3490, Long Beach, Calif.) and analyzed using Image J software (30) to measure the x-y coordinates of bone pixels.

[4] = system: pigs fed P-adequate corn-soybean meal basal diet; assay: Expt 1: metatarsal breaking strength, three-point bending test; conditions: BD + phytase 2,000 U/kg, 6 wk
Description: Based on results of the preliminary trials, Experiment 1 was conducted with 24 gilts (6-wk old, 8.6±0.1 kg body weight) to test the possible benefit of phytase to metatarsal breaking load of pigs fed the corn-soybean meal basal diet (BD, Table 1). The BD contained 0.33% available P and adequate concentrations of all other required nutrients (24). The selected pigs were divided into two groups (n=12), and were fed BD or BD+phytase at 2,000 U/kg for 6 wk.
Third and 4th metatarsals in both experiments and femur (right leg) in Experiment 2 were prepared by manually removing surrounding skin, muscle and other tissues. Bones were stored in closed plastic bags at 4° C. until strength analysis. Maximal breaking load was measured using an Instron 4500 Machine (Canton, Mass.) at room temperature (23° C.) by subjecting each bone to a three-point bending test^(28). During mechanical tests, force was applied to the center of the bone held by supports 2.0 cm apart for metatarsals and 3.3 cm apart for femur. The crosshead speed was set at 50 mm/min and the sample rate was 10 points/s. Final strength was determined from load-displacement curves indicating the maximum loads. The metatarsal breaking strength was expressed as the mean strength of four bones from both left and right feet of pigs in Experiment 1, and as the mean of the two bones from the right foot of pigs in Experiment 2. […]

[5] = 0.35% iP + Sr 50 mg/kg + phytase 3,400 U/kg, P<0.001
[6] = phytase 3,400 U/kg into the 0.35% iP diet, P<0.001
[7] = phytase 3,400 U/kg into the 0.35% iP diet, P<0.05
[8] = phytase 2000 U/kg and/or Sr 50 mg/kg, n=6

B1: Phytase: Escherichia coli AppA2 phytase (OptiPhos, JBS United, Inc.), added to diets at feed mixing; AppA2 is SEQ ID NO: 2 (protein, listed as Escherichia coli)
chain: MKAILIPFLSLLIPLTPQSAFAQSEPELKLESVVIVSRHGVRAPTKATQLMQDVTPDAWPTWPVKLGWLTPRGGELIAYLGHYQRQRLVADGLLAKKGCPQPGQVAIIADVDERTRKTGEAFAAGLAPDCAITVHTQADTSSPDPLFNPLKTGVCQLDNANVTDAILSRAGGSIADFTGHRQTAFRELERVLNFSQLNLCLNREKQDESCSLTQALPSELKVSADNVSLTGAVSLASMLTEIFLLQQAQGMPEPGWGRITDSHQWNTLLSLHNAQFYLLQRTPEVARSRATPLLDLIMAALTPHPPQKQAYGVTLPTSVLFIAGHDTNLANLGGALELNWTLPGQPDNTPPGGELVFERWRRLSDNSQWIQVSLVFQTLQQMRDKTPLSLNTPPGEVKLTLAGCEERNAQGMCSLAGFTQIVNEARIPACSL
[1]; [5]
  improvement of femur bone density (radiograph image pixel numbers) vs 0.35% iP: 28%
  improvement of metacarpus bone density (radiograph image pixel numbers) vs 0.35% iP: 20%
  increase in metacarpal bone volume vs 0.35% iP: 38%
[1]; [6]
  enhancement of osteoid thickness in the periosteal area: 60%
  increase of sulfated proteoglycans in cancellous bone: 18%
[1]; [7]
  decrease in trabecular separation, metacarpal bone: 37%
  increase in trabecular density, metacarpal bone: 42%
  increase in trabecular thickness, metacarpal bone: 51%
[2]
  decrease of Ca concentration in cancellous bones, femur and metacarpus: 11 to 19%
  total ash concentration of cortical bone, femurs: not altered
[2]; P<0.002
  elevation of Sr concentration in cancellous bone, femur: 127 fold
[2]; P<0.05
  increase in Fe concentration of cancellous bone, metacarpus: 22%
[3]; P<0.05
  enhancement of yield bending moment of femur: 19%
[3]; P=0.06
  larger cross-sectional area of femur vs diets without phytase: 11%
[3]; [8]
  femur Cross-sectional area: 165 mm^2
  femur Cross-sectional radius: 9.0 mm
  femur Maximum bending moment: 2263 kg × mm
  femur Maximum stress: 4.0 kg/mm^2
  femur Modulus of elasticity: 49 kg/mm^2
  femur Moment of inertia: 5419 mm^4
  femur Strain: 0.06
  femur Yield bending moment: 1507 kg-mm
  femur Yield stress: 2.7 kg/mm^2
[4]
  breaking strength of metatarsals: 112.0 ± 3.9 kg
[4]; P<0.02
  greater breaking strength of metatarsals vs BD: 12%
